# Laboratory results from patent US20260132200A1 (Regeneron, published 2026).
# T1: human CD3 expressed on cells (Jurkat, a CD3+ human T-cell line; human T cells) (human, UniProt P07766 23-126; P04234 22-100)
# T1 chain 1: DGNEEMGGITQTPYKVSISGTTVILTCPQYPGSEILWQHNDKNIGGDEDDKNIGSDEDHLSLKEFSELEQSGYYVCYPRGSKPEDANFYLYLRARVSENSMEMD
# T1 chain 2: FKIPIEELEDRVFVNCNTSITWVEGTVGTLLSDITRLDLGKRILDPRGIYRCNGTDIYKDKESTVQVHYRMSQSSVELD
# Target: T1, human CD3 expressed on cells (Jurkat, a …)
# Assay: cell-based or functional assay
row,Binder,U937 Cytotoxicity Human T-cells [M] (EC50)
1,"H1H5788P (antibody, V domains shown) VH: EVQLVESGGGLVQPGRSLRLSCAASGFTFDDYTMHWVRQAPGKGLEWVSGISWNSGSIGYADSVKGRFTISRDNAKNSLYLQMNSLRAEDTALFYCAKDQSGYGHYYYGMDVWGQGTTVTVSS VL: EIVMTQSPATLSVSPGERATLSCRASQSVSSNLAWYQQKPGQAPRLLIYGASTRATDIPARFSGSGSGTEFTLTISSLQSEDFAVYHCQQYNNWPLTFGGGTKVEIK",1.54e-11
2,"H1H5772S (antibody, human IgG1, V domains shown) VH: QVQLVESGGGLVQPGRSLRLSCAASGFSFDDYAMHWVRQAPGQGLEWVSGISWNGGSRDYADSVKGRFTISRDNARNSLFLQMNSLFTEDTALYYCAKDKSGYGSYFYGMDVWGQGTTVTVSS VL: EIVLTQSPGILSLSPGDRATLSCRASQSIRNIYLAWYQQKPGQAPRLLIHGASTRATGIPDRFSGSGSGTDFTLTISRLEPEDFAVYYCQQRVSSPYTFGQGTKLEIK",6.89e-13
3,"H1H5781P (antibody, human IgG1, V domains shown) VH: EVQLVESGGGLVQPGRSLRLSCAASGFTFDDFTMHWVRQAPGKGLEWVSDISWNSGSIDYADSVKGRFTISRDNARNSLFLQMSSLRTEDTASYYCIKDKSGYGSYNYGLDVWGQGTTVTVSS VL: EIVLTQSPGTLSLSPGDRATLSCRASQSVSSIYLAWYQQKPGQAPRLLIHGASTRATGIPDRFSGSGSGTDFTLTISRLEPEDFALYYCHQRVSSPYTFGQGTKLEIK",1.83e-12
4,"H1H5782P (antibody, human IgG1, V domains shown) VH: EVQLVESGGGLVQPGRSLRLSCAASGFTFDDYAMHWVRQAPGKGLEWVSGISWNSGSKDYADSVKGRFTISRDNTRNSLFLQMNSLRTEDTALYYCAKDKSGYGSFYYGMDVWGQGTTVTVSS VL: not shown",5.18e-12
5,"H1H5780P (antibody, human IgG1, V domains shown) VH: EVQLVESGGGLVQPGRSLRLSCAASGFTFDDYAMHWVRQAPGKGLEWVSGISWNGGSKDYADSVKGRFTISRDNTRNSLSLQMNSLRIEDTALYYCAKDKSGYGSFYYGLDVWGQGTTVTVSS VL: EIVLTQSPGTLSLSPGDRATLSCRASQSIRSIYLAWYQQKPGQAPRLLIHGASTRATGIPDRFSGSGSGTDFTLTISRLEPEDFAVYYCQQRVSSPYTFGQGTKLEIK",4.03e-12
6,"H1H5752P (antibody, human IgG1, V domains shown) VH: QVQLVESGGGVVQPGRSLRPSCAASGFSFRDYGMHWVRQAPGKGLEWMAHIWYNGKNKYYADSVKGRFTISRDNSKNTLYLQMNSLRPEDTAVYYCARDGVSARGTPFDYWGQGTLVTVSS VL: ETTLTQSPAFMSAAPGDKVSISCIASQYIDDDVNWYQQKPGETAIFIIQEASTLVPGISPRFSGSGYGTHFTLTINNIDSEDAAFYFCLQHDNFPYTFGQGTKLEIK",1.85e-11
7,"H1H5755B (antibody, human IgG1, V domains shown) VH: EVQLVESGGGVVQPGRSLRLSCAASGFTFSNYGMHWVRQAPGKGLEWVTVILHDGSYKYYADSVKGRFTISRDNSKNTLHLQMNSLRTEDTAVYYCAKGPMFRGVPYNHYYGMDVWGQGTTVTVSS VL: DIQMTQSPSSLSASVGDRVTITCRASQGIRNDLGWYQQKPGKAPKRLIYAASSLQSGVSSRFSGSGSGTEFTLTISSLQPEDFATYYCLQHNSYPYTFGQGTKVEIKR",5.16e-11
8,"H1H5757B (antibody, human IgG1, V domains shown) VH: EVQLVESGGGVVQPGRSLRLSCAASGFTFSSYGMHWVRQAPGKGLEWVTVILHDGSNRYSADSVKGRFTISRDNSKNTLYLQMNILRVEDTAVYYCTKGAMVRGVPYNHYYGMDVWGQGTTVTVSS VL: DIQMTQSPSSLSASVGDRVTITCRASQGIRNDLGWYQQKPGKAPKRLIYAASILQSGVPSRFSGSGSGTEFTLTISSLQPEDFATYYCLQHNSYPYTFGQGTKLEIKR",9.65e-11
9,"H1H5758B (antibody, human IgG1, V domains shown) VH: EVQLVESGGGVVQPGRSLRLSCAASGFTFSSYGMHWVRQAPGKGLEWVTVILHDGSNRYYADSVKGRFTISRDNSKNTLYLQMNILRAEDTAVYYCTKGAMVRGVPYNHYYGMDVWGQGTTVTVSS VL: DIVMTQSPSSLSASVGDRVTITCRASQGIRNDLGWYQQKPGKAPKRLIYAASNLQSGVPSRFSGSGSGTEFTLTISSLQPEDFATYYCLQHNSYPYTFGQGTKLEIKR",8.86e-08
10,"H1H5778P (antibody, human IgG1, V domains shown) VH: EVQLVESGGGLVQPGRSLRLSCVASGFTFADFTMHWVRQAPGKGLEWVSGISWNSNSIDYADSVKGRFTISRDNAKKSLFLQMSSLRAEDTALYYCVKDRSGYSRFYYGMDVWGQGTTVTVSS VL: EIVMTQSPATLSVSPGERAILSCRASQNINSNLAWYQQKPGQAPRLLIYGASTRATGVPARFSGSGSGTEFTLTIRSLQSEDFAVYYCQQYYNWPITFGHGTRLEIK",3.41e-13
11,"H1H5793B (antibody, human IgG1, V domains shown) VH: QVQLVQSGTEVKKPGASMKVSCKASGYTFTGYYIHWVRQAPGQGLEWMGWINPNSDVTKYAQKFQGRVTLTRDTSISAAYIDLSRLRSDDTAIYYCARMGDGAVFDYWGQGTLVTVSS VL: DIQLTQSPSSLSASVGDRVTITCRASQRISSYLNWYQQKPGKAPKVLISVASSLQSGVPSRFSGSGFGTDFTLTISSLQPEDSASYYCQQSYNTPLTFGGGTKLEIKR",8.85e-11
12,"H1H5797B (antibody, human IgG1, V domains shown) VH: QVQLVQSGTEVKKPGASVKVSCKASGYTFTGYYMHWVRQAPGQGLEWMGWINPNSDVTNYAQKFQGRVTLTRDTSISTAYIDLSRLRSDDTAIYYCARMGDGAVFDYWGQGTLVTVSS VL: DIQMTQSPSSLSASVGDRVTITCRASQRISSYLNWYQQKPGKAPKVLISVASSLQSGVPSRFSGSGSGTDFTLTISSLQPEDFASYYCQQSYNTPLTFGGGTKVEIKR",5.76e-10
13,"H1H5786B (antibody, human IgG1, V domains shown) VH: QVQLVESGAEVKKPGASVKVSCKTSGYTFTGYYMHWIRQAPGQGLEWMGWINPKSGGTNYAQKFQGRVTMTRDTSISTAYMELSRLRSDDMAVYYCARMGDGAVFDFWGQGTLVTVSS VL: AIQMTQSPSSLSASVGDRVTITCRASQRISSFLNWYQQKPGKAPKLLIYTASNLQNGVPSRFSGSGSGTDFTLTISSLQPEDFATYYCQQSYRTPLTFGGGTKVEIKR",6.1e-11
14,"H1H5792B (antibody, human IgG1, V domains shown) VH: QVQLVESGGGVVQPGRSLRLSCAASGFTFSSYGMHWVRQAPGKGLEWVSTISFDGSNKYYADSVKGRFTISRDNSKNTLYLQMNSLRPEDTAVYYCAKGGGTSGSYFYYGMDVWGQGTTVTVSS VL: AIQMTQSPSSLSASVGDRVTITCRASQRISSFLNWYQQKPGKAPKLLIYTASNLQNGVPSRFSGSGSGTDFTLTISSLQPEDFATYYCQQSYRTPLTFGGGTKLEIKR",1.4e-10
15,"H1H5798B (antibody, human IgG1, V domains shown) VH: QVQLVQSGGGLVKPGGSLRLSCAASGFTFSSYDMSWVRQAPGKGLEWVSYISSSGNTIHYADSVKGRFTISRDNSKNSLYLQMNSLRAEDTAVYYCAKAGPATVTRRYYYYYGLDVWGQGTTVTVSS VL: DIVMTQSPSSLSASVRDRVTITCRASQRISSYLNWFQQKPGKAPKVLIYTASSLQNGVPSRFSGSGSGTDFTLTISSLQPEDFATYYCQQSYRTPLTFGGGTKVEIKR",1.81e-10
16,"H1H5790B (antibody, human IgG1, V domains shown) VH: EVQLVESGGGVVQPGRSLRLSCAASGFTFSYYGMHWVRQAPGKGLEWVAVISFDGKNKYYADSVMGRFTISRDNSKNTLYLQMNSLRAEDSAVFFCARSYDILTGYGAGYSYHYGMDVWGQGTTVTVSS VL: AIQMTQSPSSLSASVGDRVTITCRASQRISSFLNWYQQKPGKAPKLLIYTASNLQNGVPSRFSGSGSGTDFTLTISSLQPEDFATYYCQQSYRTPLTFGGGTKVEIKR",8.71e-11
17,"H1H5795B (antibody, human IgG1, V domains shown) VH: EVQLVESGAEVKKPGASVKVSCKTSGYSFIGYYIHWMRQAPGQGLEWMGWINPKSGVTNYAQRFQGRVTMTRDTSISTAYMELSRLKSDDTAVYFCARMGDGAVFDFWGQGTLVTVSS VL: DIQLTQSPSSLSASVGDRVTITCRASQRISSFLNWYQQKPGKVPKLLIYTASNLQNGVPSRFSGTGSGTDFTLTISSLQPEDFATYYCQQSYRTPLTFGGGTKVDIKR",6.74e-11
18,"H1H5791B (antibody, human IgG1, V domains shown) VH: QVQLVESGAEVKKPGASVKVSCKTSGYTLSGYYMHWMRQAPGQGLEWMGWINPKSGVTNYAQKFQDRVAMTRDTSISTAYMELSRLRSDDTAVYYCARMGDGAVFDFWAQGTLVTVSS VL: DIQLTQSPSSLSASVGDRVTITCRASQRISSFLNWYQQKPGKAPKLLIYTASNLQNGVPSRFSGSGSGTDFTLTISSLQPEDFATYYCQQSYRTPLTFGGGTKLEIKR",8.01e-11

# Target: T1, human CD3 expressed on cells (Jurkat, a …)
# Assay: cell-based or functional assay
# Remark: another data set of the same source
row,Binder,U937 Cytotoxicity Human T-cells [M] (EC50)
1,"H1M3549N (antibody, mouse IgG1, V domains shown) VH: EVQLVESGGGLVQPGRSLRLSCVASGFPFADYTMHWVRQAPGKGLEWVSDISWNSGSIGYADSVKGRFTISRDNAKNSLYLQMNSLRTEDTALYYCAKDMSGYAHYFYYGMDVWGQGTTVTVSS VL: not shown",1.07e-10
2,"H2M3563N (antibody, mouse IgG2, V domains shown) VH: EVHLVESGGGLVQPGRSLRLSCAASGFTFDDYTMHWVRQAPGKGLEWVSDISWNSGSIGYADSVKGRFTVSRDNAKNSLYLQMNSLRGEDTALYYCAKDMSGYGHYGKYGMDVWGQGTTVTVSS VL: DIQMTQSPSSLSASVGDRVTITCRASQSIRSYLNWYQQKPGKVPKLLIYAASSLQSGVPSRFSGSGSGTDFTLTINSLQPDDFATYYCQQTYSNPPITFGQGTRLEIK",4.05e-11
3,"H1M3613N (antibody, mouse IgG1, V domains shown) VH: EVQLVESGGGLVQPGRSLKLSCTASGFTFADYTMHWVRQGPGKGLEWVSDISWNSGSKGYADSVKGRFTISRDNAKNSLYLQMNSLRTEDTALYYCAKDMSGYAHYYYYALDVWGQGTTVTVSS VL: not shown",8.66e-10
